Measured values from patent US20210363266A1.

Columns and labels:
[1] = molecular target: human 4-1BB on the reporter cell strain HEK293F-h4-1BB-NFkB (human) (UniProt Q07011); experiment: cell-based or functional assay
[2] = molecular target: human 4-1BB His protein (Sinobiological, Beijing #10041-H08H) (human) (UniProt Q07011); experiment: capture ELISA, antibody captured, biotinylated 4-1BB-his
Chain of human 4-1BB His protein (Sinobiological, Beijing #10041-H08H) (human) (Q07011 24-186 limits assumed): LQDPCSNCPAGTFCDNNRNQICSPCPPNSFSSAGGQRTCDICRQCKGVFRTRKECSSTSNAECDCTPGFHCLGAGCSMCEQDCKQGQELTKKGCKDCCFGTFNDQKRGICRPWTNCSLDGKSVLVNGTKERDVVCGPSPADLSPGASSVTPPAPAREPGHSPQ

Chain of human 4-1BB on the reporter cell strain HEK293F-h4-1BB-NFkB (human) (Q07011 24-255): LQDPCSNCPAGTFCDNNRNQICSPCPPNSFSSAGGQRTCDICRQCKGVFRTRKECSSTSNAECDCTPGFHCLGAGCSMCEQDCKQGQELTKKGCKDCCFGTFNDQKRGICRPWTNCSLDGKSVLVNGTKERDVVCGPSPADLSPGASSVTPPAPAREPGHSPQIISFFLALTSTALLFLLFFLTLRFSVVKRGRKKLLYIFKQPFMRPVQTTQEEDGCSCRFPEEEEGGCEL
Chain of Urelumab (BMS) (antibody) (VH): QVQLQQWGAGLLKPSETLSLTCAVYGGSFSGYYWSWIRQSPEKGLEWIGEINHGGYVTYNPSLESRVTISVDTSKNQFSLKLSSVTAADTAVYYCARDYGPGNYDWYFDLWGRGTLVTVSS
Chain of Urelumab (BMS) (antibody) (VL): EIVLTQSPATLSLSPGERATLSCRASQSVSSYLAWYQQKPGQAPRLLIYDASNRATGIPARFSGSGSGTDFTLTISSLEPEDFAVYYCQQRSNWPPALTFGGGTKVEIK

Substance | luciferase activity (antibody at 10 nM) [1] | EC50 [2]
hIgG (antibody) | 290 | 
MOR7480 (Pfizer) (antibody) | 1000 | 
Urelumab (BMS) (antibody) | 2190 | 0.192 mg/L
